Experimental data from patent publication US20240262926A1 (published 2024).
Positions count from the first letter of the chain named. One block for each binder: values may come before it.

Tests used:
[1] = biological target: T1, recombinant human TfR (r human TfR: Sino Biological Inc.) (human, UniProt P02786 89-760); assay: BLI (Octet RED96), His-tagged TfR ECD loaded on Ni-NTA sensor, antibody as analyte
T1 construct: Bought product; also called r human TfR-ECD (Histag); hTfR; not shown: histidine tag attached to the N-terminus
Description: (§1) By measuring the variations of this shift between the interfering waves, determination of the number of the molecules bound to the layer of the biomolecules immobilized to the sensor tip surface and kinetic analysis of it can be performed in real time. The measurement was performed according generally to the operating manual attached to Octet RED96. As a human TfR, a recombinant human TfR (r human TfR: Sino Biological Inc.) was used, which had the amino acid sequence of the hTfR extracellular region, i.e., the cysteine residue at the position 89th from the N-terminal side to the phenylalanine at the C-terminus, of the amino acid sequence set forth as SEQ ID NO:1, with a histidine tag attached to the N-terminus. As a monkey TfR, a recombinant monkey TfR (r monkey TfR: Sino Biological Inc.) was used, which had the amino acid sequence of the cynomolgus monkey TfR extracellular region, i.e., the cysteine residue at the position 89th from the N-terminal side to the phenylalanine at the C-terminus, of the amino acid sequence set forth as SEQ ID NO:2, with a histidine tag attached to the N-terminus.
(§2) Each of the antibodies (anti-hTfR antibody Nos. 1 to 14) purified above was subjected to 2-fold dilution steps with HBS-P+(10 mM HEPES containing 150 mM NaCl, 50 μM EDTA and 0.05% Surfactant P20) to prepare antibody solutions of 7 different concentrations, 0.78125 to 50 nM (0.117 to 7.5 μg/mL). These antibody solutions were used as the sample solutions. The r human and r monkey TfRs were respectively diluted with HBS-P+ to prepare 25 μg/mL solutions, which were used as r human TfR-ECD (Histag) solution and r monkey TfR-ECD (Histag) solution, respectively.
(§3) Each of the sample solutions prepared above by 2-fold dilution steps was added, 200 μL/well, to a 96-well plate, black (Greiner Bio-One Inc.). Each of the r human TfR-ECD (Histag) solution and the r monkey TfR-ECD (Histag) solutions prepared above was added, 200 μL/well, to predetermined wells. To respective wells for baseline, dissociation and washing were added HBS-P+, 200 μL/well. To wells for regeneration were added 10 mM Glycine-HCl, pH 1.7, 200 μL/well. To wells for activation was added 0.5 mM NiCl₂ solution, 200 μL/well. The plate and biosensor (Biosensor/Ni-NTA: ForteBio Inc., a division of Pall Corporation) were set in the prescribed positions of Octet RED96.

[2] = biological target: T2, recombinant monkey TfR (r monkey TfR: Sino Biological Inc.) (cynomolgus monkey (Macaca fascicularis), UniProt Q5RDH6 89-760 (Pongo abelii entry)); assay: as above
T2 construct: Bought product; also called r monkey TfR-ECD (Histag); cynomolgus monkey TfR; not shown: histidine tag attached to the N-terminus
T2 chain: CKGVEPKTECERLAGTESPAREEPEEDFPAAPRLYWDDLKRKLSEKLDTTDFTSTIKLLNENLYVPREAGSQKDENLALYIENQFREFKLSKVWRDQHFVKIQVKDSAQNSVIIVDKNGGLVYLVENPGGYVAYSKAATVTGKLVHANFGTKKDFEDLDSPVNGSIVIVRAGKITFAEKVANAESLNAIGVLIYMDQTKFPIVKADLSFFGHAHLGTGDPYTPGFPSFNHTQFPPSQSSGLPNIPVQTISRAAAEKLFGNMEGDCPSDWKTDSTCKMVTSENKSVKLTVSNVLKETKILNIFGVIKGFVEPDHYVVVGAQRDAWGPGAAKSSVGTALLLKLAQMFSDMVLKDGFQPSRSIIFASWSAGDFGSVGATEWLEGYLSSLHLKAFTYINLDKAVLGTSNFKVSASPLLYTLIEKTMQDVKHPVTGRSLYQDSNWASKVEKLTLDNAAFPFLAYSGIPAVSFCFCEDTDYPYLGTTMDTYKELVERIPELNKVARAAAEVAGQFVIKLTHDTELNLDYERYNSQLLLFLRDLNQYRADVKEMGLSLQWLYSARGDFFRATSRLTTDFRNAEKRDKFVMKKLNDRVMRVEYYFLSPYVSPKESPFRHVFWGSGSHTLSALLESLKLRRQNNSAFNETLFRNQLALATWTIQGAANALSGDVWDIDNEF
Description: as §1, §2, §3

B1: anti-hTfR antibody No. 2 (antibody, V domains shown)
VH: EVQLQESGAELVRPGVSVKISCKGSGYTFTDYVMHWVRQSHAKSLEWIGVISTYYGHGSYNQRFKGKATMTVDKSSSTAYLELVRLTSEDSAIYYCVRGGYGSSSLAGNFDVWGAGTTVTVSS
VL: DIVLTQSPATLSVTPGDSVSLSCRASQSISNNLQWYQQKSHESPRLLIKYASQSISGIPSRFSGSGSGTDFTLSINSVETEDFGMYFCQQSNSWPRTFGAGTKLELKR
notes: Mouse hybridoma antibody purified on Protein G; also called mouse anti-hTfR antibody No. 2; product of Clone 2 line
Kd [1]: 0.0112 nM
koff [1]: 1.23e-05 s⁻¹
kon [1]: 1.11e+06 M⁻¹ s⁻¹

B4: anti-hTfR antibody No. 10 (antibody, V domains shown)
VH: EVQLQESGGGLVKPGGSLKLSCEASGITFRNYAMSWVRQTPEKRLEWVATISSYGGYTYYADSVKGRFTVSRDNAGNTLYLQMSSLRSEDTAMYHCARQEVPYPYPMDNWGQGTSVIVSS
VL: DIVMTQTPSSLSASLGERVSLTCRPSQEISGYLSWLQQKPDGTIKRLIYAASTLDSGVPKRFSGSRSGSDYSLTISSLESEDFADYYCLQYASYPRTFGGGTKLEIK
notes: Mouse hybridoma antibody purified on Protein G; also called mouse anti-hTfR antibody No. 10; product of Clone 10 line
Kd [2]: 31.6 nM
koff [2]: 0.0122 s⁻¹
kon [2]: 387000 M⁻¹ s⁻¹
Kd [1]: 1.13 nM
koff [1]: 0.000766 s⁻¹
kon [1]: 679000 M⁻¹ s⁻¹

B5: anti-hTfR antibody No. 14 (antibody, V domains shown)
VH: EVQLQESGPELLKPGASVKMSCKASGYAFTGYVIHWVKQKPGQGLEWIGFLNPHKDDSEYNEKFRGKATLTSDKSSSTAYMDLSSLTSEDSAVYYCARGYYYYSMDYWGQGTSVTVSS
VL: DIVLTQTPVIMSAYPGEKVTLTCSASSNINSIHWYQQKPGTSPKRWIYDTSNLASGVPARFSGSGSGTSYSLTISSMEAEDAASYYCHQRSGYPFTFGSGTKLEIK
notes: Mouse hybridoma antibody purified on Protein G; also called mouse anti-hTfR antibody No. 14; product of Clone 14 line
Kd [2]: 0.0516 nM
koff [2]: 3.61e-05 s⁻¹
kon [2]: 700000 M⁻¹ s⁻¹
Kd [1]: < 0.001 nM
koff [1]: < 1e-07 s⁻¹
kon [1]: 961000 M⁻¹ s⁻¹

B6: anti-hTfR antibody No. 4 (antibody, V domains shown)
VH: EVQLQESGAELVRPGTSVRVFCKASGYAFTNYLIEWVKQRPGQGLEWIGLINPGSGGIIYNEKFTDRATLTADKSSSTAYMQLSSLTSDDSAVYFCARSNYYGTTYWHFDVWGAGTTVTVSS
VL: DIVLTQTPAIMSASPGEKVTMTCSASSNVNYMHWYQQKSSTSPKLWIYDTSKLASGVPGRFSGSGSGNSYSLTISSMEAEDVATYYCFQGNGNPYTFGGGTKLEIK
notes: Mouse hybridoma antibody purified on Protein G; also called mouse anti-hTfR antibody No. 4; product of Clone 4 line
Kd [2]: 0.161 nM
koff [2]: 0.000121 s⁻¹
kon [2]: 754000 M⁻¹ s⁻¹
Kd [1]: 0.12 nM
koff [1]: 0.000229 s⁻¹
kon [1]: 1.91e+06 M⁻¹ s⁻¹

B7: anti-hTfR antibody No. 11 (antibody, V domains shown)
VH: EVQLQESGAELVRPGSSVKISCKASGYAFSIYWINWLKQRPGQGLEWIGQIYPGNGDTNYNGKFKGKATLTADKSSNTVYMRLSSLTSEDSAVYFCGRWGDDYAMDFWGQGTSVTVSS
VL: DIVLTQSPATLSVTPGDRVSLSCRASQSIRNYLHWYQQKSHESPRLLIKYASQSISGIPSRFSGSGSGTDFTLSINSVETEDFGMYFCQQTNSWPYTFGGGTKLEIK
notes: Mouse hybridoma antibody purified on Protein G; also called mouse anti-hTfR antibody No. 11; product of Clone 11 line
Kd [2]: 3.38 nM
koff [2]: 0.000421 s⁻¹
kon [2]: 124000 M⁻¹ s⁻¹
Kd [1]: 0.0837 nM
koff [1]: 2.28e-05 s⁻¹
kon [1]: 272000 M⁻¹ s⁻¹

B8: anti-hTfR antibody No. 13 (antibody, V domains shown)
VH: B7 VH
VL: B7 VL with L4I, S7T, S74T
notes: Mouse hybridoma antibody purified on Protein G; also called mouse anti-hTfR antibody No. 13; product of Clone 13 line
Kd [2]: 0.123 nM
koff [2]: 7.29e-05 s⁻¹
kon [2]: 591000 M⁻¹ s⁻¹
Kd [1]: < 0.001 nM
koff [1]: < 1e-07 s⁻¹
kon [1]: 835000 M⁻¹ s⁻¹

B13: anti-hTfR antibody No. 5 (antibody, V domains shown)
VH: EVQLQESGPELVKPGASVKMSCKASGYTFTNFVIHWVKQRPGQGLEWIGFFNPHKNGAEYNEKFQVKATLTSDKSSTTAYMELNSLTSEDSAVYYCARSFYYYSMDYWGQGTSVTVSS
VL: DIVMTQTPAIMSASPGEKVTMTCSASSSISSIHWYQQKPGTSPKRWIYDTSTLASGVPVRFSGSGSGTSYSLTISSMEAEDAATYYCHQRSSYPTFGGGTKLEIK
notes: Mouse hybridoma antibody purified on Protein G; also called mouse anti-hTfR antibody No. 5; product of Clone 5 line
Kd [2]: 1.46 nM
koff [2]: 0.000758 s⁻¹
kon [2]: 519000 M⁻¹ s⁻¹
Kd [1]: 0.0364 nM
koff [1]: 2.44e-05 s⁻¹
kon [1]: 671000 M⁻¹ s⁻¹

The remaining lines, values ahead:

Kd [2]: < 0.001 nM
koff [2]: < 1e-07 s⁻¹
kon [2]: 280000 M⁻¹ s⁻¹
Kd [1]: 0.00509 nM
koff [1]: 2.55e-06 s⁻¹
kon [1]: 500000 M⁻¹ s⁻¹
B2: anti-hTfR antibody No. 1 (antibody, V domains shown)
VH: EVQLQESGGGLVQPGGSLKLSCAASGLTFSNYGMSWIRQTPDKRLELVANINTNGGSTYYPDSVKGRFTISRDNAKNTLYLQMNSLKSEDTAIYYCTNNRYDEDYWGQGTSVTVSS
VL: DIVLTQSSKFMSTSVGDRVSITCKASQDVNSAVAWFQQKPGQSPKLLIYWTSTRHTGVPDRFTGSGSGTVYTLTISSVQAEDLALYYCQQHYSTPRTFGGGTKLEIKR
notes: Mouse hybridoma antibody purified on Protein G; also called mouse anti-hTfR antibody No. 1; product of Clone 1 line

Kd [2]: 0.123 nM
koff [2]: 0.000236 s⁻¹
kon [2]: 495000 M⁻¹ s⁻¹
Kd [1]: 0.958 nM
koff [1]: 0.000723 s⁻¹
kon [1]: 754000 M⁻¹ s⁻¹
B3: anti-hTfR antibody No. 6 (antibody, V domains shown)
VH: EVQLQESGPGLVAPSQSLSITCSVSGFSLSTYGVYWVRQPPGKGLEWLGIIWGDGSTNYHSALISRLTISKDNSKSQVFLKLNSLQTADTATYYCAKPDDVWGAGTTVTVSS
VL: B4 VL with M4L, P25A, A92S
notes: Mouse hybridoma antibody purified on Protein G; also called mouse anti-hTfR antibody No. 6; product of Clone 6 line

Kd [2]: 0.249 nM
koff [2]: 0.000126 s⁻¹
kon [2]: 505000 M⁻¹ s⁻¹
Kd [1]: 0.432 nM
koff [1]: 0.000723 s⁻¹
kon [1]: 754000 M⁻¹ s⁻¹
B9: anti-hTfR antibody No. 12 (antibody, V domains shown)
VH: EVQLQESGAELARPGTSVKVSCKAAGYVFINYLIEWVKQRPGQGLEWIGVIHSGSGGTNYNDNFKDKATLTRDVSSSTAYMQLSSLTSDDSAVYFCARRNFGNYYFDYWGQGTTLTVSS
VL: DIVLTQSHKFMSTVIGDRVSITCKASHDVKTAVAWYQQTPGQSPKLLTYWSSTRHTGVPDRFTGSGSGTDYTLTISSVQAEDLALYYCQQHFSTPLTFGAGTKLELK
notes: Mouse hybridoma antibody purified on Protein G; also called mouse anti-hTfR antibody No. 12; product of Clone 12 line

Kd [2]: 0.0171 nM
koff [2]: 4.54e-06 s⁻¹
kon [2]: 266000 M⁻¹ s⁻¹
Kd [1]: 0.0822 nM
koff [1]: 3.03e-05 s⁻¹
kon [1]: 369000 M⁻¹ s⁻¹
B10: anti-hTfR antibody No. 7 (antibody, V domains shown)
VH: B4 VH with G10A, L20V, A33F, Y54A, V70I, H95F, P106A, N109Y
VL: DIVLTQSPVIMSASLGEEITLTCSASSSVNYIHWYQQKSGTSPKVLIYQTSNLASGVPSRFSGSRSGTFYSLKISSVEAEDAADYYCHQWSSYPWTFGGGTKLEIK
notes: Mouse hybridoma antibody purified on Protein G; also called mouse anti-hTfR antibody No. 7; product of Clone 7 line

Kd [2]: 9.18 nM
koff [2]: 0.00507 s⁻¹
kon [2]: 552000 M⁻¹ s⁻¹
Kd [1]: < 0.001 nM
koff [1]: < 1e-07 s⁻¹
kon [1]: 696000 M⁻¹ s⁻¹
B11: anti-hTfR antibody No. 8 (antibody, V domains shown)
VH: EVQLQESGPGLVAPSQSLSITCTVSGFSLTTYGVSWIRQPPGKGLEWLGIIWGDGSTNYRSALISRLSISKDNSKNQVFLKLNSLQTDDTATYYCAKPDDYWGQGTSVTVSS
VL: B10 VL with V9A, N30S, I32M, Q49G, G56E, R65G, K73T
notes: Mouse hybridoma antibody purified on Protein G; also called mouse anti-hTfR antibody No. 8; product of Clone 8 line

Kd [1]: 0.121 nM
koff [1]: 9.46e-05 s⁻¹
kon [1]: 782000 M⁻¹ s⁻¹
B12: anti-hTfR antibody No. 9 (antibody, V domains shown)
VH: EVQLQESGPELKKPGETVKISCKASGYTFTNYGVSWVKQAPGKDLKWMGWIYTFTGEATYIDDFRGRFAFSLETSANTAYLQINNLKNEDTATYFCSRRNGAWFEDWGQGTLVTVSA
VL: DIVLTQSPALMSASPGETVTMTCSASSSVSLMFWYQQKPRSSPKPWIYFTSYRASGVPIRFSGSGSGTSFSLTISNLEAEDAATYYCQQWTSDPPTFGSGTKLEIE
notes: Mouse hybridoma antibody purified on Protein G; also called mouse anti-hTfR antibody No. 9; product of Clone 9 line
